Reference: FireProtDB (doi:10.1074/jbc.272.30.18686)

B1: Ribonuclease HI, P0A7Y4 (parent)
chain: MLKQVEIFTDGSCLGNPGPGGYGAILRYRGREKTFSAGYTRTTNNRMELMAAIVALEALKEHCEVILSTDSQYVRQGITQWIHNWKKRGWKTADKKPVKNVDLWQRLDAALGQHQIKWEWVKGHAGHPENERCDELARAAAMNPTLEDTGYQVEV

Variants of: B1
Details: Escherichia coli (strain K12), pH 3.2, Thermal, CD, glycine-HCl 10 mM, reversible: yes, structure 2RN2, whole UniProt chain shown; for ddG of mutation (higher = less stable): 53 °C

Row | Variant | ddG of mutation (higher = less stable) | Tm | change of melting temperature, mutant - wild type (higher = more stable) | unfolding enthalpy (van 't Hoff)
1 | MLKQVEIFTDGSCLGNPGPGGYGAILRYRGREKTFSAGYTRTTNNRMELMALIVALEALKEHCEVILSTDSQYARQGITQWIHNWKKRGWKTADKKPVKNVDLWQRLDAALGQHQIKWEWVKGHAGHPENERCDELARAAAMNPTLEDTGYQVEV [A52L V74A] | -0.36 kcal/mol | 54.2 °C | 1.2 °C | 105 kcal/mol
2 | MLKQVEIFTDGSCLGNPGPGGYGAILRYRGREKTFSAGYTRTTNNRMELMAIIVALEALKEHCEVILSTDSQYVRQGITQWIHNWKKRGWKTADKKPVKNVDLWQRLDAALGQHQIKWEWVKGHAGHPENERCDELARAAAMNPTLEDTGYQVEV [A52I] | -1.9 kcal/mol | 59.2 °C | 6.2 °C | 84.8 kcal/mol
3 | MLKQVEIFTDGSCLGNPGPGGYGAILRYRGREKTFSAGYTRTTNNRMELMADIVALEALKEHCEVILSTDSQYVRQGITQWIHNWKKRGWKTADKKPVKNVDLWQRLDAALGQHQIKWEWVKGHAGHPENERCDELARAAAMNPTLEDTGYQVEV [A52D] | 1.9 kcal/mol | – | – | –
4 | MLKQVEIFTDGSCLGNPGPGGYGAILRYRGREKTFSAGYTRTTNNRMELMALIVALEALKEHCEVILSTDSQYVRQGITQWIHNWKKRGWKTADKKPVKNVDLWQRLDAALGQHQIKWEWVKGHAGHPENERCDELARAAAMNPTLEDTGYQVEV [A52L] | -1.3 kcal/mol | – | – | –
5 | MLKQVEIFTDGSCLGNPGPGGYGAILRYRGREKTFSAGYTRTTNNRMELMACIVALEALKEHCEVILSTDSQYVRQGITQWIHNWKKRGWKTADKKPVKNVDLWQRLDAALGQHQIKWEWVKGHAGHPENERCDELARAAAMNPTLEDTGYQVEV [A52C] | -0.8 kcal/mol | 55.5 °C | 2.5 °C | 128 kcal/mol
6 | MLKQVEIFTDGSCLGNPGPGGYGAILRYRGREKTFSAGYTRTTNNRMELMAKIVALEALKEHCEVILSTDSQYVRQGITQWIHNWKKRGWKTADKKPVKNVDLWQRLDAALGQHQIKWEWVKGHAGHPENERCDELARAAAMNPTLEDTGYQVEV [A52K] | 5.9 kcal/mol | 33.5 °C | -19.5 °C | 70.8 kcal/mol
7 | MLKQVEIFTDGSCLGNPGPGGYGAILRYRGREKTFSAGYTRTTNNRMELMAEIVALEALKEHCEVILSTDSQYVRQGITQWIHNWKKRGWKTADKKPVKNVDLWQRLDAALGQHQIKWEWVKGHAGHPENERCDELARAAAMNPTLEDTGYQVEV [A52E] | 1.5 kcal/mol | – | – | –
8 | MLKQVEIFTDGSCLGNPGPGGYGAILRYRGREKTFSAGYTRTTNNRMELMAIIVALEALKEHCEVILSTDSQYLRQGITQWIHNWKKRGWKTADKKPVKNVDLWQRLDAALGQHQIKWEWVKGHAGHPENERCDELARAAAMNPTLEDTGYQVEV [A52I V74L] | -1.19 kcal/mol | 56.9 °C | 3.9 °C | 122 kcal/mol
9 | MLKQVEIFTDGSCLGNPGPGGYGAILRYRGREKTFSAGYTRTTNNRMELMAIIVALEALKEHCEVILSTDSQYARQGITQWIHNWKKRGWKTADKKPVKNVDLWQRLDAALGQHQIKWEWVKGHAGHPENERCDELARAAAMNPTLEDTGYQVEV [A52I V74A] | -1.19 kcal/mol | 56.9 °C | 3.9 °C | 102 kcal/mol
10 | MLKQVEIFTDGSCLGNPGPGGYGAILRYRGREKTFSAGYTRTTNNRMELMAFIVALEALKEHCEVILSTDSQYLRQGITQWIHNWKKRGWKTADKKPVKNVDLWQRLDAALGQHQIKWEWVKGHAGHPENERCDELARAAAMNPTLEDTGYQVEV [A52F V74L] | -0.03 kcal/mol | 53.1 °C | 0.1 °C | 99.8 kcal/mol
11 | MLKQVEIFTDGSCLGNPGPGGYGAILRYRGREKTFSAGYTRTTNNRMELMAGIVALEALKEHCEVILSTDSQYLRQGITQWIHNWKKRGWKTADKKPVKNVDLWQRLDAALGQHQIKWEWVKGHAGHPENERCDELARAAAMNPTLEDTGYQVEV [A52G V74L] | 1.4 kcal/mol | 48.4 °C | -4.6 °C | 97.8 kcal/mol
